Substrate in the data set “not read”: CC(C)=CCc1c(O)ccc2c1O[C@H](c1ccc(O)cc1)CC2=O
The data set is described as follows: not read. The following applies: substrate inhibition model, pH 7.4, 37.0 °C.

Substrate in data set [1]: CC(C)=CCc1c(O)ccc2c1O[C@H](c1ccc(O)cc1)CC2=O
Kind of data set: cells, lysate or membranes named. In kind it is in vitro ADME, human. The following applies: pH 7.4, 37.0 °C.

[2] abbreviates: other: formation of G1, substrate inhibition model.
Setting [3] is: other: formation of G2, substrate inhibition model.

B1: CYP1A2 (Homo sapiens) (protein)
chain: MALSQSVPFSATELLLASAIFCLVFWVLKGLRPRVPKGLKSPPEPWGWPLLGHVLTLGKNPHLALSRMSQRYGDVLQIRIGSTPVLVLSRLDTIRQALVRQGDDFKGRPDLYTSTLITDGQSLTFSTDSGPVWAARRRLAQNALNTFSIASDPASSSSCYLEEHVSKEAKALISRLQELMAGPGHFDPYNQVVVSVANVIGAMCFGQHFPESSDEMLSLVKNTHEFVETASSGNPLDFFPILRYLPNPALQRFKAFNQRFLWFLQKTVQEHYQDFDKNSVRDITGALFKHSKKGPRASGNLIPQEKIVNLVNDIFGAGFDTVTTAISWSLMYLVTKPEIQRKIQKELDTVIGRERRPRLSDRPQLPYLEAFILETFRHSSFLPFTIPHSTTRDTTLNGFYIPKKCCVFVNQWQVNHDPELWEDPSEFRPERFLTADGTAINKPLSEKMMLFGMGKRRCIGEVLAKWEIFLFLAILLQQLEFSVPPGVKVDLTPIYGLTMKHARCEHVQARLRFSIN
Take B1: in the data set “not read” (other: formation of M1), the K0.5 came to 5.08 ± 0.54 µM, the Vmax was 0.000312 µmol/min/mg and the Vmax/Km is 61.4 µL/min/mg. Further, in the data set “not read” (other: formation of M3), the K0.5 came out at 19.81 ± 9.47 µM, the Vmax amounted to 0.000173 µmol/min/mg and the Vmax/Km is 8.75 µL/min/mg.

B2: UGT2B4 (Homo sapiens) (protein)
chain: GKVLVWPTEFSHWMNIKTILDELVQRGHEVTVLASSASISFDPNSPSTLKFEVYPVSLTKTEFEDIIKQLVKRWAELPKDTFWSYFSQVQEIMWTFNDILRKFCKDIVSNKKLMKKLQESRFDVVLADAVFPFGELLAELLKIPFVYSLRFSPGYAIEKHSGGLLFPPSYVPVVMSELSDQMTFIERVKNMIYVLYFEFWFQIFDMKKWDQFYSEVLGRPTTLSETMAKADIWLIRNYWDFQFPHPLLPNVEFVGGLHCKPAKPLPKEMEEFVQSSGENGVVVFSLGSMVSNTSEERANVIASALAKIPQKVLWRFDGNKPDTLGLNTRLYKWIPQNDLLGHPKTRAFITHGGANGIYEAIYHGIPMVGVPLFADQPDNIAHMKAKGAAVSLDFHTMSSTDLLNALKTVINDPLYKENAMKLSRIHHDQPVKPLDRAVFWIEFVMRHKGAKHLRVAAHDLTWFQYHSLDVTGFLLACVATVIFIITKCLFCVWKFVRTGKKGKRD
For the protein B2, the K0.5 in data set [1] (other: formation of G1, Michaelis–Menten model) turned out to be 2.66 ± 0.28 µM.

B3: UGT1A6 (Homo sapiens) (protein)
chain: DKLLVVPQDGSHWLSMKDIVEVLSDRGHEIVVVVPEVNLLLKESKYYTRKIYPVPYDQEELKNRYQSFGNNHFAERSFLTAPQTEYRNNMIVIGLYFINCQSLLQDRDTLNFFKESKFDALFTDPALPCGVILAEYLGLPSVYLFRGFPCSLEHTFSRSPDPVSYIPRCYTKFSDHMTFSQRVANFLVNLLEPYLFYCLFSKYEELASAVLKRDVDIITLYQKVSVWLLRYDFVLEYPRPVMPNMVFIGGINCKKRKDLSQEFEAYINASGEHGIVVFSLGSMVSEIPEKKAMAIADALGKIPQTVLWRYTGTRPSNLANNTILVKWLPQNDLLGHPMTRAFITHAGSHGVYESICNGVPMVMMPLFGDQMDNAKRMETKGAGVTLNVLEMTSEDLENALKAVINDKSYKENIMRLSSLHKDRPVEPLDLAVFWVEFVMRHKGAPHLRPAAHDLTWYQYHSLDVIGFLLAVVLTVAFITFKCCAYGYRKCLGKKGRVKKAHKSKTH
With B3, in data set [1] (setting [2]), the K0.5 worked out at 67.66 ± 16.32 µM, the maximum rate (Vmax) came out at 0.00382 µmol/min/mg and the Vmax/Km was 56.5 µL/min/mg. Moreover, in data set [1] (setting [3]), the K0.5 was found to be 31.85 ± 6.28 µM, the Vmax turned out to be 0.000342 µmol/min/mg and the Vmax/Km came to 10.7 µL/min/mg.

B4: UGT1A9 (Homo sapiens) (protein)
chain: GKLLVVPMDGSHWFTMRSVVEKLILRGHEVVVVMPEVSWQLGRSLNCTVKTYSTSYTLEDLDREFKAFAHAQWKAQVRSIYSLLMGSYNDIFDLFFSNCRSLFKDKKLVEYLKESSFDAVFLDPFDNCGLIVAKYFSLPSVVFARGILCHYLEEGAQCPAPLSYVPRILLGFSDAMTFKERVRNHIMHLEEHLLCHRFFKNALEIASEILQTPVTEYDLYSHTSIWLLRTDFVLDYPKPVMPNMIFIGGINCHQGKPLPMEFEAYINASGEHGIVVFSLGSMVSEIPEKKAMAIADALGKIPQTVLWRYTGTRPSNLANNTILVKWLPQNDLLGHPMTRAFITHAGSHGVYESICNGVPMVMMPLFGDQMDNAKRMETKGAGVTLNVLEMTSEDLENALKAVINDKSYKENIMRLSSLHKDRPVEPLDLAVFWVEFVMRHKGAPHLRPAAHDLTWYQYHSLDVIGFLLAVVLTVAFITFKCCAYGYRKCLGKKGRVKKAHKSKTH
As to B4, the K0.5 in data set [1] (setting [2]) turned out to be 15.63 ± 3.12 µM.

B5: UGT1A7 (Homo sapiens) (protein)
chain: GKLLVVPMDGSHWFTMQSVVEKLILRGHEVVVVMPEVSWQLGRSLNCTVKTYSTSYTLEDQDREFMVFADARWTAPLRSAFSLLTSSSNGIFDLFFSNCRSLFNDRKLVEYLKESCFDAVFLDPFDACGLIVAKYFSLPSVVFARGIFCHYLEEGAQCPAPLSYVPRLLLGFSDAMTFKERVWNHIMHLEEHLFCPYFFKNVLEIASEILQTPVTAYDLYSHTSIWLLRTDFVLEYPKPVMPNMIFIGGINCHQGKPVPMEFEAYINASGEHGIVVFSLGSMVSEIPEKKAMAIADALGKIPQTVLWRYTGTRPSNLANNTILVKWLPQNDLLGHPMTRAFITHAGSHGVYESICNGVPMVMMPLFGDQMDNAKRMETKGAGVTLNVLEMTSEDLENALKAVINDKSYKENIMRLSSLHKDRPVEPLDLAVFWVEFVMRHKGAPHLRPAAHDLTWYQYHSLDVIGFLLAVVLTVAFITFKCCAYGYRKCLGKKGRVKKAHKSKTH
B5: in data set [1] (setting [2]), the K0.5 stood at 32.91 ± 5.76 µM.

B6: UGT1A8 (Homo sapiens) (protein)
chain: GKLLVVPMDGSHWFTMQSVVEKLILRGHEVVVVMPEVSWQLGKSLNCTVKTYSTSYTLEDLDREFMDFADAQWKAQVRSLFSLFLSSSNGFFNLFFSHCRSLFNDRKLVEYLKESSFDAVFLDPFDACGLIVAKYFSLPSVVFARGIACHYLEEGAQCPAPLSYVPRILLGFSDAMTFKERVRNHIMHLEEHLFCQYFSKNALEIASEILQTPVTAYDLYSHTSIWLLRTDFVLDYPKPVMPNMIFIGGINCHQGKPLPMEFEAYINASGEHGIVVFSLGSMVSEIPEKKAMAIADALGKIPQTVLWRYTGTRPSNLANNTILVKWLPQNDLLGHPMTRAFITHAGSHGVYESICNGVPMVMMPLFGDQMDNAKRMETKGAGVTLNVLEMTSEDLENALKAVINDKSYKENIMRLSSLHKDRPVEPLDLAVFWVEFVMRHKGAPHLRPAAHDLTWYQYHSLDVIGFLLAVVLTVAFITFKCCAYGYRKCLGKKGRVKKAHKSKTH
Turning to B6, in data set [1] (setting [2]), the K0.5 is 34.71 ± 6.45 µM.

B7: CYP2C19 (Homo sapiens) (protein)
chain: MDPFVVLVLCLSCLLLLSIWRQSSGRGKLPPGPTPLPVIGNILQIDIKDVSKSLTNLSKIYGPVFTLYFGLERMVVLHGYEVVKEALIDLGEEFSGRGHFPLAERANRGFGIVFSNGKRWKEIRRFSLMTLRNFGMGKRSIEDRVQEEARCLVEELRKTKASPCDPTFILGCAPCNVICSIIFQKRFDYKDQQFLNLMEKLNENIRIVSTPWIQICNNFPTIIDYFPGTHNKLLKNLAFMESDILEKVKEHQESMDINNPRDFIDCFLIKMEKEKQNQQSEFTIENLVITAADLLGAGTETTSTTLRYALLLLLKHPEVTAKVQEEIERVIGRNRSPCMQDRGHMPYTDAVVHEVQRYIDLIPTSLPHAVTCDVKFRNYLIPKGTTILTSLTSVLHDNKEFPNPEMFDPRHFLDEGGNFKKSNYFMPFSAGKRICVGEGLARMELFLFLTFILQNFNLKSLIDPKDLDTTPVVNGFASVPPFYQLCFIPV
Take B7: in the data set “not read” (other: formation of M1), the K0.5 worked out at 56.54 ± 16.3 µM, the maximal velocity (Vmax) came to 0.00252 µmol/min/mg and the Vmax/Km stood at 44.5 µL/min/mg. Also, in the data set “not read” (other: formation of M3), the K0.5 stood at 16.81 ± 5.02 µM, the maximum rate (Vmax) amounted to 0.0013 µmol/min/mg and the Vmax/Km was 77.3 µL/min/mg.

B8: UGT1A1 (Homo sapiens) (protein)
chain: HAGKILLIPVDGSHWLSMLGAIQQLQQRGHEIVVLAPDASLYIRDGAFYTLKTYPVPFQREDVKESFVSLGHNVFENDSFLQRVIKTYKKIKKDSAMLLSGCSHLLHNKELMASLAESSFDVMLTDPFLPCSPIVAQYLSLPTVFFLHALPCSLEFEATQCPNPFSYVPRPLSSHSDHMTFLQRVKNMLIAFSQNFLCDVVYSPYATLASEFLQREVTVQDLLSSASVWLFRSDFVKDYPRPIMPNMVFVGGINCLHQNPLSQEFEAYINASGEHGIVVFSLGSMVSEIPEKKAMAIADALGKIPQTVLWRYTGTRPSNLANNTILVKWLPQNDLLGHPMTRAFITHAGSHGVYESICNGVPMVMMPLFGDQMDNAKRMETKGAGVTLNVLEMTSEDLENALKAVINDKSYKENIMRLSSLHKDRPVEPLDLAVFWVEFVMRHKGAPHLRPAAHDLTWYQYHSLDVIGFLLAVVLTVAFITFKCCAYGYRKCLGKKGRVKKAHKSKTH
Take B8: the K0.5 in data set [1] (setting [2]) came to 41.84 ± 8.25 µM.

The values are drawn from PMC8861878 (The Journal of pharmacy and pharmacology, 2020).
